Among the data in a protein production outcome set (Wang et al. 2014) are protein production values, retold here.

The nature of the data set: label from the status in PepcDB records.

For the sequence “MVIFNYILVCIIFGTTFLTIKIGIEAGAPPLFSAGIRFFLAGIILMIIFKLKRKEIMPHIFSKRIMYAGFCLTFMTFASLYWSEQYISSGLAAVLSATGPMMILLIQAKRNREKLQKEQLVALVIALIGVIFVSLPGMHQQVSFIWSIACIVLVIGELFYGIGSIRSKEILSDLSNVSPFLINGIQMFYGGILLLIASIIVEQPNVTVLTSWSVQWPILYLIFIGSIGGHGLYYWLLSKTNPVFPSTWLYVSPLIAIIVGYIILGEPLNPTMGMGACLILIGVFLANRSTLRTYFKKGRLLEKEM”, the protein production entry was “failed”. In the case of “MVITLSRLYVHPVKSMRGLQLSHAQVSSSGLAFDRVFMITEPDGTFITARQYPKMVMFTPALMSDGLYLTAPDGESASIRFNDFLANAEPTEVWGNHFTALIAPAAINNWLSGYFQREVQLRWLGPELTRRVKPMPEIPLSFADGFPYLLINEASFKELQQRCPGSIKLEQFRPNLLVTGASAFAEDSWQVIRVGDITFDLVKPCSRCVLTTVSVERGRKHPTGEPLQTLQTFRTAENGDIDFGQNMVARNSGIIRVGDEVEVLSTKPPRPYGAGAVVESLAAPEDKSKAVAIEYNGIRFNGNNQQVLLEQLEQQNIRIPYSCRAGICGSCRITLINGEVAPLKQSAIGNDGTILCCSCIPKGDITLSGK”, the protein production result is reported as “failed”. Consider “MVKDRQIQKTKVAIYNAFISLLQENDYSKITVQDVIGLANVGRSTFYSHYESKEVLLKELCEDLFHHLFKQGRDVTFEEYLVHILKHFEQNQDSIATLLLSDDPYFLLRFRSELEHDVYPRLREEYITKVDIPEDFLKQFLLSSFIETLKWWLHQRQKMTVEDLLKYYLTMVER”, for which the protein production result was “not failed”. “MVKDTLFSTPIAKLGDFIFDENVAEVFPDMIQRSVPGYSNIITAIGMLAERFVTADSNVYDLGCSRGAATLSARRNINQPNVKIIGIDNSQPMVERCRQHIAAYHSEIPVEILCNDIRHVEIKNASMVILNFTLQFLPPEDRIALLTKIYEGLNPNGVLVLSEKFRFEDTKINHLLIDLHHQFKRANGYSELEVSQKRTALENVMRTDSIETHKVRLKNVGFSQVELWFQCFNFGSMIAVK”: the protein production result is recorded as “not failed”. For the sequence “MVKFIHCSDLHLDSPFKSKSHISPKIFEDVQKSAYESFKNIVDIALQQDVDFVIIAGDLFDSENRTLRAEIFLKQQFERLQNEQIFVYVCHGNHDPLSSKISSNWPDNVSVFSNKVETYEAITKSGETIYIHGFSYENRASYENKIDEYPSSQGQKGIHIGVLHGTYSKSSVNERYTEFILEDLNSKLYHYWALGHIHERQQLSDMPVINYSGNIQGRHFNEQGEKGCLLIEGDHLKLKTKFYPTQYIRFEEATIETDKTSKQGLYEVIQNFKEQVREEGKAFYRLTLVINSETLISPQDLLQVEEMITDYEENENQFVYIDELKIQYAQNDESPLVNEFSAELLVDQTVFDKAMSDLYLNPRASKFLDDYGTFDHTALVNRAEEILKAEMRGEQNDN”, the protein production result is given as “failed”. For “MVKHIWDSERAAQLPKGVEELVYRSNLIGSDRTVCNWGGGNTSMKTTEKDFRGREIEVMWVKGSGSDLATMKAHNFSGLKLDDIRPLIKRDQMPDEEMVDYLSHCMIDSKHPRPSIETLLHAFLPYKHVDHTHPDAIISICCADNGKQIAEDIYGNRFVWVPYVRPGFTLSKMIAEGVANNPHAELVLMEKHGLVTWGETSETCYQKTISIIQEAEQYINDRINQHEVFGGKRYQPLPEDKR”, the protein production entry is “not failed”. Take “MVKKLFILISYGVIAALIYLYGEWLLEWIQQGGARFIFLTVIIATLLALFPIIPYPIIGGVLGAAYGPFLGSAVTWIGSSLASIIMFMFVRYGYQDWGLSLIRRSDLVTKVTAMFEKNAFMAIFITRLIPIIPSIIVNIYSALSRVSFINYSIASSLGKVPSMILFAVVGNSIATNPSQLLWIALFYSSFLLIVWIGYRAWQRVALQKQANI”: the protein production result is “failed”.

Regarding “MVKLDRYIGVTVFVAILAVLGVILGLALLFAFIDELNDISASYGIGDALRFIFLTAPRRAYDMLPMAALIGCLVGLGTLASNSELTIMRAAGVSLSRIVWAVMKPMLVLMLAGILVGEYVAPWTENIAQSGRALAQGGGDSQSSKRGLWHRQGREYIHINAVQPNGVLYGVTRYRFDEQRGLESASFAKRARFETDHWQLEEVTTTLLHPREKRSEVVKLPTERWDAQLSPQLLNTVVMEPEALSISGLWQYIHYLADQGLNNNRYWLAFWTKVLQPLVTAALVLMAISFIFGPLRSVTLGQRIFTGVLVGFVFRIAQDLLGPSSLVFDFPPLLAVVIPASICALAGVWLLRRAG”, the protein production entry is listed as “failed”.
